{
  "source": "patent US20250243286A1",
  "about": "(SIXPEAKS BIO, published 2025)",
  "binders": {"B1": {"name": "Antibody Backstoikäs (antibody, V domains shown)", "VH": "QVQLVQSGAEVKKPGASVKVSCKASGYKFTSSYINWVRQAPGQGLEWMGTINPVSGSTSYAQKFQGRVTMTRDTSISTAYMELSRLRSDDTAVYYCARGGWFDYWGQGTLVTVSS", "VL": "QSALTQPASVSGSPGQSITISCTGTSSDVGSYNYVNWYQQHPGKAPKLMIYGVSKRPRGVSNRFSGSKSGNTASLTISGLQAEDEADYYCGTFAGGSYYGVFGGGTKLTVL", "notes": "full-length IgG"}},
  "key": {"human ActRIIB": {"biological_target": "T1, human ActRIIB (human, UniProt Q13705 19-137, limits assumed)", "T1 construct": "antigen in MSD-SET; also called ACVR2B; ActR2B", "T1 sequence": "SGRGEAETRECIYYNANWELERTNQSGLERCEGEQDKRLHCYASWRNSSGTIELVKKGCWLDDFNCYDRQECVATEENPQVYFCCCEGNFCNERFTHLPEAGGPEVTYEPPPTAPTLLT", "experiment": "affinity measurement"}, "[1]": {"biological_target": "ActRIIA and ActRIIB (on TGFB/SMAD SBE Reporter HEK293 cells) (human)", "sequence (chain, as listed by the source, chain 1 of 2)": "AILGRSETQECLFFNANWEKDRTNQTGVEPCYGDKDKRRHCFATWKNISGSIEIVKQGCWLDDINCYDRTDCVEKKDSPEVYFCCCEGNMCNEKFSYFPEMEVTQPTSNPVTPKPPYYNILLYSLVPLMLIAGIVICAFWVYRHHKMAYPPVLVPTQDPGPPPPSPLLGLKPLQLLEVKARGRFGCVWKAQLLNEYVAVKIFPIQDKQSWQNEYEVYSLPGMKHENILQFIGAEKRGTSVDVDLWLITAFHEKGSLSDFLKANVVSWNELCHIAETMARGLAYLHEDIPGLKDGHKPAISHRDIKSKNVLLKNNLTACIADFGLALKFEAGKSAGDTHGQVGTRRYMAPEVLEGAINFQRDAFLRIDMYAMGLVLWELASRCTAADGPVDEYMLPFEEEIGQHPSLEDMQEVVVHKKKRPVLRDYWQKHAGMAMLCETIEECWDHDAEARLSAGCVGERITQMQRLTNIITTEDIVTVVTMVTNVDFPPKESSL", "sequence (chain, as listed by the source, chain 2 of 2)": "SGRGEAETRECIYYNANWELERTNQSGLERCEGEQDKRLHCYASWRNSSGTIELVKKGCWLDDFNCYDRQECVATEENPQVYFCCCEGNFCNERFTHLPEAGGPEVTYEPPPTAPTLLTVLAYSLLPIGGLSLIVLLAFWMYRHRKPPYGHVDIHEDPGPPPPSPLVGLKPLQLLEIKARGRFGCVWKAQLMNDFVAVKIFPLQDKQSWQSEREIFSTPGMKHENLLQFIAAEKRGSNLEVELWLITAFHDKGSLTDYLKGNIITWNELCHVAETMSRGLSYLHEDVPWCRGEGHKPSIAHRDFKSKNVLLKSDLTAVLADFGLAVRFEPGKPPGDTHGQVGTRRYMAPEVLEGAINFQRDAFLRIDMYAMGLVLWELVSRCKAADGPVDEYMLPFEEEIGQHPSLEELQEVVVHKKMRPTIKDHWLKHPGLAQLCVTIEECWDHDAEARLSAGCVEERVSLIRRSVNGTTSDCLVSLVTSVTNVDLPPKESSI", "experiment": "cell-based or functional assay"}},
  "data": [
    {"binder": "B1", "values": [
      {"measurement": "binding result", "setting": "human ActRIIB", "result": "binds"},
      {"measurement": "IC50, Activin SMAD RGA", "setting": "[1]", "result": 0.18, "unit": "nM"},
      {"measurement": "IC50, Myostatin SMAD RGA", "setting": "[1]", "result": 0.0875, "unit": "nM"},
      {"measurement": "IC90, Activin SMAD RGA", "setting": "[1]", "result": 3.71, "unit": "nM"},
      {"measurement": "IC90, Myostatin SMAD RGA", "setting": "[1]", "result": 1.23, "unit": "nM"}
    ]}
  ]
}
